Measured values as given in patent US10188706B2, “Plasminogen activator mutants as anti-fibrinolytic agents” (HADASIT MEDICAL RESEARCH SERVICES & DEVELOPMENT LIMITED, priority 2012, dated 2019).
“Also recorded” adds a separate entry of the source.

Key:
WT-tPA = assay: Fibrinolysis assay in human plasma derived clots, lysis by WT-tPA; assay type: biochemical
Experimental: (§1) Fibrinolysis Assay in Human Plasma Derived Clots
(§2) Clots were formed by placing human plasma (200 μL) in 16-mm diameter tissue culture wells flowed by adding thrombin (0.4 U/mL final concentration). Fibrinolysis was measured as described in Higazi A A et al., Blood (1998), 92(6):2075-83). Briefly, 10 μL tPA or uPA were placed over the plasma clots for 2 hours at 37° C., photographed and the diameter of the wholes were determined.

uPA [1] = biological target: T1, uPA (Homo sapiens, UniProt P00749); assay: Fibrinolysis assay in human plasma derived clots, lysis by uPA; assay type: biochemical; conditions: uPA 50 nM; mutant 50 nM; FIG. 2A, 2B
T1 construct: Single-chain urokinase (uPA) was purified, characterized as previously reported; made in house
Experimental: as §1, §2

reteplase = reteplase (Homo sapiens, UniProt P00750); assay: Fibrinolysis assay in human plasma derived clots, lysis by reteplase; assay type: biochemical; conditions: reteplase 20 nM, mutant 10 nM, FIG. 2B
Experimental: as §1, §2

tPA = assay: Plasminogen activator activity, chromogenic assay without fibrin, activation by tPA; assay type: biochemical, human; conditions: FIG. 2D
Experimental: (§3) Plasminogen Activator Activity
(§4) Plasminogen activator activity was determined by adding tPA (50 nM) or uPA (20 nM), to a reaction mixture containing Glu-plasminogen and the plasmin chromogenic substrate Spectrazyme PL (100 μM) in phosphate-buffered saline (PBS) at 37° C., and the light absorbance at 405 nm was measured continuously over time. The initial velocities of plasmin generation at the different conditions were calculated from the change in the A405 nm over time. The initial velocity of the reaction at each plasminogen concentration was obtained by calculating the change in the rate of A405 over different time intervals and the results were expressed as the change in optical density (ΔOD) per minute, which represents the slope of the initial velocity of plasminogen activation (Higazi A et al., J Biol Chem. (1995), 270(29):17375-80).

uPA [2] = biological target: T1, uPA; assay: Plasminogen activator activity, chromogenic assay without fibrin, activation by uPA; assay type: biochemical; conditions: FIG. 2D
Experimental: as §3, §4

WT mice subjected to CHI = assay: Closed head injury (CHI) model of TBI in WT mice; assay type: in vivo, mouse; conditions: for neuroprotection (neurological severity score, NSS): given 2 hrs after CHI
Experimental: Eight to twelve weeks old C57 mice obtained from Harlan, Israel. Mice were administered standard laboratory chow and water ad libitum, and kept in controlled temperature and light conditions. Animal experiments were carried out according to the guidelines of the Hebrew University-Institutional Committee for Care and Use of Laboratory Animals, and with the committee's approval.
Closed Head Injury (CHI) Model
Head trauma was induced by using a modified weight-drop device, as previously described (Chen Y. et al. (1996) J. Neurotrauma, 13:557-568). Briefly, after induction of ether anesthesia, a midline longitudinal incision was made, the skin was retracted and the skull was exposed. The left anterior frontal area was identified and a Teflon tipped cone (2-mm diameter) was placed 1 mm lateral to the midline, in the midcoronal plane. The head was held in place manually and a 75-g weight was dropped on the cone from a height of 18 cm, resulting in focal injury to the left hemisphere. After trauma, the mice received supporting oxygenation with 95% 02 for no longer than 2 min and were then returned to their cages. In sham controls only anesthesia and skin incision were carried out.

[3] = mutant 100 nM added together with TA

Sequence of WT-tPA (P00750 36-562): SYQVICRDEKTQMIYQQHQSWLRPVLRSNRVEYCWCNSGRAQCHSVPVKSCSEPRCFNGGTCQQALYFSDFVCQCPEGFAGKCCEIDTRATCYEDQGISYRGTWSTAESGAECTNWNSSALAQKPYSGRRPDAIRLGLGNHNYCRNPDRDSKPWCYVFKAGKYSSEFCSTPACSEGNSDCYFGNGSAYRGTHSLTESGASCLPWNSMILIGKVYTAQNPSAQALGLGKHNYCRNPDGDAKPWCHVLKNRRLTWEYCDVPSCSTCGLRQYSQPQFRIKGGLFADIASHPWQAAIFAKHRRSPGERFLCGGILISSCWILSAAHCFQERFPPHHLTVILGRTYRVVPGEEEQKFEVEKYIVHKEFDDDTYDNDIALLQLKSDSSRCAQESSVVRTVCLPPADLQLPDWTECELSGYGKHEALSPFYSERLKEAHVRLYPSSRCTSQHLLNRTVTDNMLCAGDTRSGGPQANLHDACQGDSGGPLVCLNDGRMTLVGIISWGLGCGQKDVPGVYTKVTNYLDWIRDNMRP

B1: tPA-S^481A-DS: tPA double mutant, Ser481 to Ala and KHRR299-302 to AAAA (PAI-1 docking site); SEQ ID NO. 2 or 13 (protein, listed as Homo sapiens)
chain: GARSYQVICRDEKTQMIYQQHQSWLRPVLRSNRVEYCWCNSGRAQCHSVPVKSCSEPRCFNGGTCQQALYFSDFVCQCPEGFAGKCCEIDTRATCYEDQGISYRGTWSTAESGAECTNWNSSALAQKPYSGRRPDAIRLGLGNHNYCRNPDRDSKPWCYVFKAGKYSSEFCSTPACSEGNSDCYFGNGSAYRGTHSLTESGASCLPWNSMILIGKVYTAQNPSAQALGLGKHNYCRNPDGDAKPWCHVLKNRRLTWEYCDVPSCSTCGLRQYSQPQFRIKGGLFADIASHPWQAAIFAAAAASPGERFLCGGILISSCWILSAAHCFQERFPPHHLTVILGRTYRVVPGEEEQKFEVEKYIVHKEFDDDTYDNDIALLQLKSDSSRCAQESSVVRTVCLPPADLQLPDWTECELSGYGKHEALSPFYSERLKEAHVRLYPSSRCTSQHLLNRTVTDNMLCAGDTRSGGPQANLHDACQGDAGGPLVCLNDGRMTLVGIISWGLGCGQKDVPGVYTKVTNYLDWIRDNMRP
notes: tPA double mutant, Ser481 to Ala and KHRR299-302 to AAAA (PAI-1 docking site); 2 or 13
potency as inhibitor of fibrinolysis compared with TA (WT-tPA; TA tested at its maximal inhibitory concentration, FIG. 2B): more potent inhibitors of fibrinolysis than TA | lysis of human plasma derived clots by WT-tPA (WT-tPA; WT-tPA 20 nM, mutant 50 nM, FIG. 2A, 2B): Identical anti-fibrinolytic activity; also recorded: inhibited | lysis of human plasma derived clots by uPA (uPA [1]): Identical anti-fibrinolytic activity; also recorded: inhibited | clot lysis induced by reteplase (reteplase): inhibit the clot lysis induced by reteplase | plasminogen activation by tPA in the absence of fibrin, in the presence of TA (tPA; [3]): inhibited the plasminogen activation induced by tPA | plasminogen activation by tPA in the absence of fibrin (change in OD per minute) (tPA; plasminogen 500 nM, WT-tPA 50 nM, mutants 100 nM or TA 200 nM alone): Neither tPA-S^481A nor tPA-S^481A-DS inhibited | plasminogen activation by uPA in the absence of fibrin, in the presence of TA (uPA [2]; [3]): inhibited the activation of plasminogen by uPA | plasminogen activation by uPA in the absence of fibrin (change in OD per minute) (uPA [2]; plasminogen 500 nM, uPA 20 nM, mutants 100 nM or TA 200 nM alone): Neither tPA-S^481A nor tPA-S^481A-DS inhibited | intracerebral hemorrhage increased by injected WT-tPA post CHI (WT mice subjected to CHI; WT mice given WT-tPA 5 mg/kg immediately after CHI plus equimolar mutant): could be inhibited | plasma levels of d-Dimers post CHI (WT mice subjected to CHI; WT mice, 1 mg/kg IV, measured 2 hours after CHI, FIG. 4A, 1 mg/kg): significantly attenuated the increase in d-Dimers; also recorded: had the same effect on d-Dimers and post TBI thrombocytopenia | platelet counts / thrombocytopenia post CHI (WT mice subjected to CHI; WT mice, 1 mg/kg IV, measured 2 hours after CHI, FIG. 4B, 1 mg/kg): prevented the development of thrombocytopenia; also recorded: had the same effect on d-Dimers and post TBI thrombocytopenia | CSF fibrinolytic activity post CHI (WT mice subjected to CHI; WT mice, IV after CHI, CSF obtained 2 hours after CHI, tested on plasma derived clots): inhibited CSF fibrinolytic activity | intracerebral hemorrhage (MRI, extravasation of Hgb) post CHI (WT mice subjected to CHI; WT mice, IV immediately after or 2 hrs after CHI, Hgb at 2 or 8 hrs, MRI at 24 hrs): significantly attenuated the expansion of intracerebral hemorrhage; also recorded: decreased ICH to the same extent as tPA-S^481A | inhibition of intracerebral hemorrhage compared with combination of TA and aprotinin (WT mice subjected to CHI; combination in optimal concentrations, FIG. 3B): comparable to the inhibition induced by a combination of TA and aprotinin | neuroprotection (neurological severity score, NSS) (WT mice subjected to CHI; FIG. 5): the difference in neuroprotection provided by the two tPA variants vanished | neuroprotection (neurological severity score, NSS) (WT mice subjected to CHI; FIG. 5, listed as tPA^Ser481Ala-DS): lower neurological severity scores (NSS) | neuroprotection (neurological severity score, NSS, 24 hours after CHI) (WT mice subjected to CHI; given IV immediately after CHI, 1 mg/kg, FIG. 5): provided less neuroprotection than tPA-S^481A | potency as inhibitor of intracerebral hemorrhage compared with TA or aprotinin (WT mice subjected to CHI; optimal concentrations of TA or aprotinin, FIG. 3B): more potent inhibitors of intracerebral hemorrhage than optimal concentrations of TA or aprotinin
